The target in the assay is purified PLD1 (isoform not distinguished in Example 4) (human). The experiment in a line: cell-based or functional assay.

“human RhoA with … at the amino terminus (from UniProt P61586 1-190)” came in with an activation of PLD1 at a maximally effective concentration (RhoA 3.8 M as printed) of 13 fold, a half-maximal activation of PLD1 activity (headgroup release assay) of 1 M and a stimulation of PLD1 activity of 10 fold.
Consider “human ADP-ribosylation factor 1 (ARF1) (from UniProt P84077 2-181)”, for which the activation of PLD1 at a maximally effective concentration (ARF1 4.7 M as printed) stood at 49 fold, the half-maximal activation of PLD1 activity (headgroup release assay) was found to be 0.2 M and the stimulation of PLD1 activity was 50 fold.
“human cdc42 with … at the amino terminus (from UniProt P60953 1-188)” registered an activation of PLD1 at a maximally effective concentration (cdc42 5.5 M as printed) of 10 fold, a half-maximal activation of PLD1 activity (headgroup release assay) of 1 M and a stimulation of PLD1 activity of 5 fold.
Substance “human protein kinase C- (isoform letter lost in print) (from UniProt P17252 2-672) (enzyme)” displayed an activation of PLD1 at a maximally effective concentration (PMA-activated PKC- 0.043 M as printed) of 28 fold.

The values are drawn from US20030124108A1.
